Assay results published in the supplement of paper PMC10567573.

B1: ALDH8A1 (parent)
chain: RVAKKLQSGLVWTNCWLIRELNLP
B2: DULLARD (parent)
chain: LVVFTASMEIYGSAVADKLDNSRS

Variants of: B1
Test: protein stability index of a GFP-peptide fusion (GPS, HEK-293T) (PSI 1-6); higher = more stable
Conditions: c terminus: a fixed tail appended
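Also: lentivirally expressed fusions sorted by FACS into six bins by GFP to DsRed ratio, PSI derived from sequencing read proportions per bin multiplied by bin number.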

Protein stability index of substitutions, site by site:
A3: R 2.03, I 3.48, W 2.5, P 3.51, Y 1.16, M 3.44
Q7: L 4.65, N 2.29, M 1.85, P 2.97, Y 2.48, W 2.85, K 2.17
L17: F 2.6, D 3.58, I 1.08, N 1.33, K 1.34, E 2.77, Q 1.32, P 1.68, R 3.13
L6: P 1.95, M 3.2, C 3.03, K 2.56, E 2.26, A 2.04
P24: S 2.25, Y 3.16, T 2.19, A 2.76, W 3.34
N22: K 4.74, T 2.17, P 3.03, G 2.7, D 5.55, I 3.01, Y 3.15
V2: P 2.08, E 1.9, K 1.36, I 3.68, T 2.33, S 3.15, N 2.49, D 1.92, W 2.54, H 4.07
R19: L 2.18, P 1.53, F 1.5, S 2.44
K4: M 2.82, H 2.45, N 4.07, L 1.98, C 1.05, F 2.22, W 3.14, R 2.29
K5: V 4.01, L 3.02, M 3.19, T 2.88, C 3.67, Y 3.1, H 3.18, I 2.13, Q 1.34
L23: E 2.88, M 3.59, Q 3.48
W12: Q 1.18, T 1.61, H 2.37, E 2.75, K 2.27, P 3.58
I18: T 2.57, P 1.3, M 2.47, H 1.89, N 2.46, Y 1.89, D 1.73, K 4.38, E 2.2, S 3.62
S8: I 1.71, E 2.9, H 1.63, V 3.65, A 3.67, T 1.94
G9: W 2.58, E 1.72, M 3.32, T 3.22
E20: Y 3.02, T 3.57, M 1.33, P 2.22
R1: H 2.09, N 3.5, T 3.94, C 1.74, P 2.46, L 5, D 2.04, V 2.44, K 3.98, F 3.15
T13: E 1.95, K 2.59, H 1.57
L10: R 2.47, T 2.97, D 1.51
C15: H 3.92, V 2.65, L 2.64, P 2.17, A 2.39, E 1.8, R 3.14, I 2.44
V11: P 2.11, D 2.32, W 4.66, L 2.91, E 2.29
L21: H 2.79, W 2.9, D 3.05, G 5.81
W16: K 2.08, F 2.47, P 1.22, Q 1.03, M 3.3, G 1.32, N 2.1, T 2.09, E 1.43, L 1.85, A 2.71, H 1.92, D 1.63
N14: L 2.19, I 1.2, Y 1.59, V 1.22, K 2.73, M 2.04, D 2.19, P 2.06, F 2.33

Variants of: B2
Test: as above
Conditions: c terminus: a fixed tail appended

Protein stability index: each site, then its substitutions
D20: A 3.32, C 1.69, T 2.02, R 1.2, N 1.6, V 2.63, K 1.88, E 1.97, S 3.14, P 2.48, L 2.95, H 1.99, Q 3.44, Y 2.51
I10: M 1.28, S 1.05, A 1.05, E 1.5, V 2.24, H 1.44, C 1.75, K 2.05, F 2.94, P 2.16, L 1.34, N 1.98, Y 1.92, Q 1.62, T 1.87
S13: D 2.37, T 2.42, Y 2.58, I 2.46, G 1.68, P 2.48, E 1.36, A 2.72, Q 1.29, C 2.05, R 2.84
A14: P 1.73, D 1.19, Q 1.99, R 4.28, T 3.78, N 2.84, C 2.02, S 2.32, E 1.04, V 1.69
S24: L 2.2, T 2.71, H 2.46, I 1.3, R 1.88, E 2.29, Q 2.15, C 2.69, A 2.29
D17: R 2.48, H 3, K 2.26, Y 2.6, L 3.58, V 1.97
S22: E 4.27, R 3.98, Y 2.24, K 2.58, G 2.5, I 2.37, D 2.71, T 1.89, M 2.31, P 2.62, A 2.39
R23: H 2.77, S 2.05, P 2.61, F 2.67, G 1.66, Q 1.86, T 2.68, V 2.42, K 1.71, E 2.94, C 2.03, D 1.75
N21: P 3, S 4.01, T 2.67, D 2.47, G 1.8, K 3.06, R 2.68, V 1.5, A 2.08
V15: E 2.32, A 2, I 3.03, L 1.48, R 3.02, T 1.66, N 1.87, Y 1.87, H 1.82, S 2.48, G 2.14, C 1.95, K 2.26, D 1.11
A16: E 2.34, R 3.75, N 1.46, D 3.11, F 4.14, H 3.11, P 3.45, I 2.93, K 2.89, Q 2.02
L19: S 2.02, K 1.66, D 1.73, M 2.41, E 2.17, W 2.27, H 1.54, I 1.62, N 1.23, P 2.23, R 1.87, Y 3.37, F 2.41, Q 2.45
E9: N 1.74, L 3.73, D 2.27, R 2.71, V 3, F 2.73, W 2.46, P 3.01
K18: D 2.94, V 2.79, M 2.11, L 2.77, N 2.74, G 1.99, Q 2.49, I 4.09, Y 1.55, H 1.88
Y11: N 3.21, K 1.51, D 1.38, I 2.51, P 2.01, A 3.03, M 1.56, Q 2.07, R 1.88, G 1.97, E 2.44, H 1.58, S 2.13, C 2.48
G12: F 2.79, E 1.45, P 2.37, W 2.26, V 3.44, T 2.86, Q 1.85, L 2.98
